Results on one protein are retold here after publication doi:10.1101/2023.11.28.568993 (bioRxiv, 2023).

The data set concerns the molecule itself. As to the kind of experiment: SEC.

B1: DNAJA2 (wild-type, class A J-domain protein) (natural protein)
chain: not shown
modifications: Alexa Fluor-488 label in the fluorescence anisotropy assays (site not stated)
With B1, the “stoichiometry N” value turned out to be 2.
